Test results: publication PMC6568020, “Elucidating the Hot Spot Residues of Quorum Sensing Peptidic Autoinducer PapR by Multiple Amino Acid Replacements” (Frontiers in Microbiology, 2019)

What was measured:
[1] = molecular target: PlcR of B. cereus ATCC 14579 (B. cereus (endogenous in strain ATCC 14579))
[2] = molecular target: PlcR of B. cereus ATCC 14579 (B. cereus (endogenous in strain ATCC 14579)); remark: listed apart in the source
[3] = molecular target: PlcR of B. thuringiensis 407 Cry- (B. thuringiensis (endogenous in strain 407 Cry- plcA'Z))
[4] = molecular target: PlcR of B. thuringiensis 407 Cry- (B. thuringiensis (endogenous in strain 407 Cry- plcA'Z)); remark: listed apart in the source
[5] = molecular target: PlcR of B. cereus ATCC 14579 (B. cereus (endogenous in strain ATCC 14579)); remark: listed apart in the source
[6] = molecular target: PlcR of B. thuringiensis 407 Cry- (B. thuringiensis (endogenous in strain 407 Cry- plcA'Z)); remark: listed apart in the source

Row | Substance | IC50 of inhibition of the hemolytic activity (human red blood cells) of supernatants of treated B. cereus ATCC 14579 cultures; the pair that is blocked: native PapR with PlcR [1] [nM] | reduction of plcA'Z (β-galactosidase) activity in Bt A'Z cells, 2.5 μM peptide added at late-exponential phase; the pair that is blocked: endogenous PapR with PlcR [3] [%] | also measured
1 | PapR7-P4A (peptide) | 4390 |  | 
2 | PapR7-P4A:F7A (peptide) |  | 40 | reduction of the hemolytic activity (human red blood cells) of supernatants of B. cereus ATCC 14579 cultures treated with 10 μM peptide; the pair that is blocked: native PapR with PlcR [2]: 60%
3 | PapR7-P4A:dE6 (peptide) |  | 40 | 
4 | PapR7-P4A:dE6:F7A (peptide) | 1990 | 40 | reduction of plcA'Z (β-galactosidase) activity in Bt A'Z cells, 10 μM peptide added at end of lag phase (OD600 0.1); the pair that is blocked: endogenous PapR with PlcR [4]: 75%
5 | PapR7-P4A:dE6:dF7 (peptide) | 2140 | 40 | reduction of plcA'Z (β-galactosidase) activity in Bt A'Z cells, 10 μM peptide added at end of lag phase (OD600 0.1); the pair that is blocked: endogenous PapR with PlcR [4]: 75%
6 | PapR7-P4A:dF7 (peptide) |  | 40 | inhibition of the hemolytic activity (human red blood cells) of supernatants of B. cereus ATCC 14579 cultures treated with 10 μM peptide; the pair that is blocked: native PapR with PlcR [5]: 83%
7 | PapR7-dE6 (peptide) | 1050 | 65 | IC50 of inhibition of plcA'Z (β-galactosidase) activity in Bt A'Z cells, lacZ-based reporter assay; the pair that is blocked: endogenous PapR with PlcR [6]: 977 nM
8 | PapR7-dE6:F7A (peptide) | 2500 | 65 | IC50 of inhibition of plcA'Z (β-galactosidase) activity in Bt A'Z cells, lacZ-based reporter assay, late-exponential phase; the pair that is blocked: endogenous PapR with PlcR [6]: 2570 nM
9 | PapR7-dE6:dF7 (peptide) | 1380 | 71 | IC50 of inhibition of plcA'Z (β-galactosidase) activity in Bt A'Z cells, lacZ-based reporter assay, late-exponential phase; the pair that is blocked: endogenous PapR with PlcR [6]: 1680 nM
10 | PapR7-dF7 (peptide) | 3040 | 63 | IC50 of inhibition of plcA'Z (β-galactosidase) activity in Bt A'Z cells, lacZ-based reporter assay; the pair that is blocked: endogenous PapR with PlcR [6]: 1220 nM
